Measured values from the nanobody polyreactivity screen of Harvey et al. (2022).

Assay: yeast display, Sf9 membrane polyspecificity reagent, FACS + sequencing; frameworks hold sequencing errors
Summary of the method: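 Using colony PCR, genes from sorted yeast display clones were amplified, then sequenced on MiSeq at 2 × 250 and filtered by CDR length. The clones had been stained with 10% biotinylated, detergent-solubilized Sf9 membrane reagent for 1 hour at 4 °C and sorted by FACS into low and high (top ~1%) gates on anti-HA and streptavidin fluorescence. Polyreactivity labels come from the gate of origin.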

| Sequence | polyreactivity (PSR sort gate) |
| --- | --- |
| QVQLVESGGGLVQAGGSLRLSCAASGYTFSRYAMGWYRPAPGKERELVAAITGRGGSTYYADSVKGRFTISRDNAKNTVYLLMNSLKPEDTAVYYCAVGRYPYVWRYYYWGQGTQVTVSS | high polyreactivity |
| QVQLVESGGGLVQAGGSLRLSCAASGYTFSRYAMGWYRQAPGKERELVADISRSGGSTDYADSVKGRFTISRDNAKNTVYLQMNSLKPEDTAVYYCAKGSWWGYYSYGFDYWGQGTQVTVSS | high polyreactivity |
| QVQLVESGGGLVQAGGSLRLSCAASGYTFTINTMGWYRQAPGKERELVAAITWRGGSTYYADSVKGRFTISRDNANNTVYLQMNSLKPEDTAVYYCNKDYYITTTTFDYWGQGTQVTVSS | low polyreactivity |
| QVQLVESGGGLVQAGGSLRLSCAASGYTFTIYAMGWYRKAPGKERELVAAITGRGGRTNYADSVKGRFTISRDNAKNTVYLQMNSLKPEDTAVYYCNAVTKVVYHGPYGYDYWGQGTQVTVSS | high polyreactivity |
| QVQLVESGGGLVQAGGSLRLSCAASGYTFTSNDMGWYRQAPGKERELVAAITWSGGTTYYADSVKGRFTISRDNAKNTVYLQMNSLKPEDTAVYYCAAESTLPIIDRDDYWGQGTQVTVSS | low polyreactivity |
| QVQLVESGGGLVQAGGSLRLSCAASGYTFVIYAMGSYRQAPGKERELVAAITTIGGRTYYADSVKGRFTISRDNAKNTVYLQMNSLKPEDTAVYYCAADIRSNRLYDGGYWGQGTQVTVSS | low polyreactivity |
| QVQLVESGGGLVQAGGSLRLSCAASGYTFVYNALGWYRQAPGKEREFVAAITWSGTSTRYADSVKGRFTISRDNAKNTVYIQMTSLQPEDTAVYYCAARRRSAQSGSYNHWGQGTQVTVSS | high polyreactivity |
| QVQLVESGGGLVQAGGSLRLSCAASGYTFVYNGMGWYRQAPGKERELVAAITWGGAGTYYADSVKGRFTISRDNAKNTVYLQMISLKPEDTSVYYCAPPSPRSRAYTYRGDYWGQGTQVTVSS | low polyreactivity |
| QVQLVESGGGLVQAGGSLRLSCAASGYTFVYYAMGLYRQAPGKERELVAAITSGGRTNYADSVKGRFTISRDNAKNTVYLQMKSLKPEDTAVYYCNVDGYYLFVRGYEYWGQGTQVTVSS | low polyreactivity |
| QVQLVESGGGLVQAGGSLRLSCAASGYTFWQYAKGWYRQAPGKERELVVTITSRGGSTYYADSVKGRFTISRDNAKNTVYLHMNSLKPEDTAVYYCNARRRYSTRRSDYWGQGTQVTVSS | high polyreactivity |
| QVQLVESGGGLVQAGGSLRLSCAASGYTFYAYAMGWYRQAPGTERELVAAITSGSSTYYADSVKGRFTISRDNAKNTVYLQMNSLKPEDTAVYYCSAEVFPGYDYWGQGTQVTVSS | low polyreactivity |
| QVQLVESGGGLVQAGGSLRLSCAASGYTFYDNAMGWYRQAPGKEREFVASITWSGGSTYYADSVKGRVTISRDNAKNTVYLQMNSLKPEDTAVYYCAAESWFKYDYWGQGTQVTVSS | low polyreactivity |
| QVQLVESGGGLVQAGGSLRLSCAASGYTFYINGMGWSRQAPGKERELVAVITWSSGSTYYADSVKGRFTISRDNAKNTVYLQMKSLKPEDTAVYYCAADVTYEDGAWTLQYDYWGQGTQVTVSA | high polyreactivity |
| QVQLVESGGGLVQAGGSLRLSCAASGYTFYIYAMGWYIQAPGKERELVAAISWTDGSTYYADSVKGRFTISRDNAMNSVYLQMNSLKPEHTAVYYCAKTSLYAGAKEYDYWGQGTQVTVSS | low polyreactivity |
| QVQLVESGGGLVQAGGSLRLSCAASGYTFYQNTMGWYRQAPGKERELVADITRRGGSTYYADSVKGRFTISRDNAKNTVYLQINSLKPEDTAVYYCAARYGPWTGYATYRYASSRYNYWGQGTQVTVSS | high polyreactivity |
| QVQLVESGGGLVQAGGSLRLSCAASGYTFYRNAMGWYRQAPGKERELVAAIRDDGSTYYADSVKGRFTISRDNAKNTVYLQMNSLKPEDTAVYYCAAAIPRQYWFGISHRRYYYWGQGTQVTVSS | low polyreactivity |
| QVQLVESGGGLVQAGGSLRLSCAASGYTFYSNAMGWYRQAPRKERELVASIRSRGRSTYYADSVKGRFTISRDNAKNTVDLQMNSLKPEDTAVYYCAALPNKPAVYAYDYWGQGTQVTVSS | low polyreactivity |
| QVQLVESGGGLVQAGGSLRLSCAASGYTFYYAMGWYRQAPGKERELVAAISAGGGRTYYADSVKGRFTISRDNAKNTDYLQMNSLKPEDTAVYYCNRVYRLTAYGYDYWGQGTQVTVSS | high polyreactivity |
| QVQLVESGGGLVQAGGSLRLSCAASGYTIESYTMGWYREAPGKEREFVAVISSSDTSTSYADSVKGRFTISRDNAKNTVYLQMNSLKPEDTAFYYCAAYSSPYYITYYWYNYDYWGQGTQVTVSS | low polyreactivity |
| QVQLVESGGGLVQAGGSLRLSCAASGYTIIVNAMGWYRQAPGKERELVAAISWSSVSTYYADSVKGRFTISRDNAKNTVYLQMNSLKPEDTAVYYCAAEGYDYSQWFDYWGQGTQVTASS | high polyreactivity |
| QVQLVESGGGLVQAGGSLRLSCAASGYTIRYYAMGWYRQAPGKERELVAAISYSGGRTYYADSVKGRFTISRDNAKNTDYLQMNSLKPEDTAVYYCNAGYYSYRYRYGYDYWGQGTQVTVSS | high polyreactivity |
| QVQLVESGGGLVQAGGSLRLSCAASGYTLDGYAMGWYRQAPGKEREFVAAIPFRGGGTYYADSVKGRFTISRDNAKNTDYLQMNSLKPEDTAVYYCNADTYDPFPWGSDYWGQGTQVTVSS | high polyreactivity |

| Sequence | polyreactivity (PSR sort gate) |
| --- | --- |
| QVQLVESGGGLVQAGGSLRLSCAASGYTLGPNTMGWYRQAPGKERELVATITYSGGSTYYADSVKGRFTISRDNAKNTVYLQMNSLKPEDTAVYYCAARYGSRRIPGSLGYWGQGTQVTVSS | high polyreactivity |
| QVQLVESGGGLVQAGGSLRLSCAASGYTLGVNAMGWSRQAPGKERELVAAINYIDTRTYYADSVKGRFTISRDNAKNTVYLKLNSLKPEDTAVYYCAARPYVPWVKRYYYWGQGTQVTVSS | low polyreactivity |
| QVQLVESGGGLVQAGGSLRLSCAASGYTLRPNGMGWYRQAPGKERELVAAISSGGSTYYADSVKGRFTISRDNAKNTVYLQMISLKPEDTAVYYCAAEYWYDYWGQGTQVTVSS | low polyreactivity |
| QVQLVESGGGLVQAGGSLRLSCAASGYTSRSNAMGWYRQAPGKERELVAAIRGGGNTKYADSVKWRFTISRDNANNTVYLQMNSLKPEDTAVYYCAVVTGSFRTRYTYYYWGQGTQVTVSS | high polyreactivity |
| QVQLVESGGGLVQAGGSLRLSCAASGYTSVGNAMGWYRPAPWKERELVAAITYNGGNTYYADSVKGRFRISRDNAKNTVYLQMNSLKPEDTAVSYCATDSQELASSRFDYWGQGTQVTVSS | low polyreactivity |
| QVQLVESGGGLVQAGGSLRLSCAASGYTSYTYTMGWYRQAPGKDRELVAAISRRSDSTYSDSVKGRVTISRDNAKNSVYLQMNSLKPEDTAVYYCAAVRVSYRSLSKSYYWGQGTQVTVSS | high polyreactivity |
| QVQLVESGGGLVQAGGSLRLSCAASGYTYSDNAMGWYRPAPGKERELVAAITSGVSTYYADSVKGRFTISRDNAKNTVYLQMNSPKPEDTAVYYCAKDVAVYADLYQGAPYGYWGQGTQVTVST | low polyreactivity |
| QVQLVESGGGLVQAGGSLRLSCAASISSINAMGWYRQAPGKERELVAAIRWSGSSTYYADSVKGRFTISRDNAKNTVYLQMNSLKPEDTAVYYCAADTTTGDRGFDYWGQGTQVTVSS | high polyreactivity |
| QVQLVESGGGLVQAGGSLRLSCAASRGIFWVYAMGWYRQATGKEREMVAAISNSDTSTSYADSVKGRFTISRDNAKNTVYLQMNSLKPEDTALYYCNADSPSLSGDYWGQGTQVTVSS | low polyreactivity |
| QVQLVESGGGLVQAGGSLRLSCAASRLTFAGNAMGWYRQAPGKEREFVATITWSDGSTRYADSVKGRFTISRDNAKNSVYLQMNSLKPEDTAVSYCNTQYPDYFYEFNYWGQGTQVTVSW | low polyreactivity |
| QVQLVESGGGLVQAGGSLRLSCAASRLTFRYYAMGWYRKAPGKERELVAAISSRGASTYYADSVKGRFTISRDNAKNTVYLQMNSLKPEDTAVYNCAVRTYVYHWSFSSLPYDYWGQGTQVTVSS | high polyreactivity |
| QVQLVESGGGLVQAGGSLRLSCAASRLTFYGYGMGWYRQAPGKERELVASITSGGNTYYADSVKGRFTISRDNAKNTVYLRMNSLKPEDTAVYYCAVTAIALYYSSGYYWGQGTQVTVSS | low polyreactivity |
| QVQLVESGGGLVQAGGSLRLSCAASRRIFGQNVMGWYRQAPGKERELVAAITSAGRTYYADSVKGRFTISRDNAKNTVYLQMNSLKPEDTAVYYCAAYVRRGFDWGHGTQVTVSS | high polyreactivity |
| QVQLVESGGGLVQAGGSLRLSCAASRRIFSFNAMGWYRQAPGKDRELVAGSTYGGNTYYADSVKGSFTISRDNAKNTVYLQMNSLKPEDTAVYYCAAVRGGRHDYWGQGTQVTVSS | low polyreactivity |
| QVQLVESGGGLVQAGGSLRLSCAASRSIFPYNVMGWYRQAPGTEMELVAAISTRGGRTYYADSVKGRFTISRDYAKNTVYLQMNSLKPEDTAVYYCATAGGPYSDSGYYWGHGTQVTVSS | high polyreactivity |
| QVQLVESGGGLVQAGGSLRLSCAASRSIFYRYAMGWYRQEPGKERELVAAISRSGGTTYYADSVKGRFTISRDNAKNTVYLQMNSQKPEDTAVYYCAARVFHPYSTDPFYYWGQGTQVTVSS | high polyreactivity |
| QVQLVESGGGLVQAGGSLRLSCAASRSTFPRYAMGWSRQAPGKERELVAAISSSGRTYYADSVKGRFTISRDNAKNTVYLQMNSLKPEDTAVYYCNAPVARGEASYYWGQGTEVTVSS | high polyreactivity |
| QVQLVESGGGLVQAGGSLRLSCAASRSTFSGNAMGWYIQAPGKERELVATITSDGTTYYADSVKGRFTISRDNAKNNVYLLMNSLKPEDTAVYYCAARYTAYRDDYWGQGTHVTVSS | high polyreactivity |
| QVQLVESGGGLVQAGGSLRLSCAASSIFRTYAMGWYRQAPGKERELVAAITWSGASTNYADSVKGRFTISRDNAKNTVYLQMNSLKPEDTAVYYCNADWRYYPSFKYYYWGQGTQVTVSS | high polyreactivity |
| QVQLVESGGGLVQAGGSLRLSCAASVFIFDTYTMGWYRQAPGKERELVAAITGSGVNTYYADSVKGRFTISRDNAKNTVYLQMNSLKPEDTAVYYCAARRKNRRDYDYYYWGQGTQVTVSS | high polyreactivity |
| QVQLVESGGGLVQAGGSLRLSCAASVFIFGLYVMGWYRQAPGKERELVAAITFNGGSTYADSVKGRFTISRDNAKNTVYLQMNSLKPEDTAVYYCNAGRAVYRYWYKYVYWGQGTQVTVSS | high polyreactivity |
